Earlier results in PMC10215522.

Target: TFPI2 (Homo sapiens) (UniProt P48307)
Sequence of UniProt P48307 (P48307 23-235): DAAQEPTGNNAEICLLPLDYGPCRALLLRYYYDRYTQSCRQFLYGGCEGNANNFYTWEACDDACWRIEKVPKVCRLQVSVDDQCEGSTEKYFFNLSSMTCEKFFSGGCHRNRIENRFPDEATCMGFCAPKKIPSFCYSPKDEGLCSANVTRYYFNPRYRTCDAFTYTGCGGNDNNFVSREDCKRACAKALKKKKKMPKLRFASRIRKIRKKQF

Kd: 70 nM
Substance: gC1qR (from UniProt Q07021)
